Data reported in PMC3292258 (Nature, 2012).

Biological target: T1, MBP-YDA (Arabidopsis, UniProt Q9CAD5 1-883)
T1 sequence (looked up): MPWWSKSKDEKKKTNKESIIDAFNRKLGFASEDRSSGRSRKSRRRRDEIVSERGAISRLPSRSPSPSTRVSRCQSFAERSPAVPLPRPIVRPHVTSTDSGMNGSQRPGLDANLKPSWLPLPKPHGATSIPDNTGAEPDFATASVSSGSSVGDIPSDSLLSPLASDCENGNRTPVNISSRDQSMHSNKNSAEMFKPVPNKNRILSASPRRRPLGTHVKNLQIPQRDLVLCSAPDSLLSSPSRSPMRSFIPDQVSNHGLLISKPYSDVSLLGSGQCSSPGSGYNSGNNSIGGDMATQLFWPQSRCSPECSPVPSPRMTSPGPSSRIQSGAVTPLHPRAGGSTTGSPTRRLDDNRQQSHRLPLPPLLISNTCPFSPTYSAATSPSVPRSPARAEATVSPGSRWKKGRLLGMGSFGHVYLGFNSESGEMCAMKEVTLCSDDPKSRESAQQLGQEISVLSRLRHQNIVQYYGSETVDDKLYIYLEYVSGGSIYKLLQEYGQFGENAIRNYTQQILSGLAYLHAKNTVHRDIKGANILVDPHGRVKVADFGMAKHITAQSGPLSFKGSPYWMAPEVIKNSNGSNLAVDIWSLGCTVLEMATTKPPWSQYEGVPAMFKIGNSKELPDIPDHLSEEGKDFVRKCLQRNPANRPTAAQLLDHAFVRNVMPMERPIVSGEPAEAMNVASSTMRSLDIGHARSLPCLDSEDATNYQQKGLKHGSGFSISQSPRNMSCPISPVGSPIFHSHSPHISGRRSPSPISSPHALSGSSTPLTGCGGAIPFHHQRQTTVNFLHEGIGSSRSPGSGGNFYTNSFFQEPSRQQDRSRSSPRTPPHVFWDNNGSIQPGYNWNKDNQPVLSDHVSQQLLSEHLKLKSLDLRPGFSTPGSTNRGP
Test: far-Western, overlay or dot blot

B1: GST-BIN2 (enzyme, Arabidopsis, UniProt Q39011 1-380, looked up)
chain: MADDKEMPAAVVDGHDQVTGHIISTTIGGKNGEPKQTISYMAERVVGTGSFGIVFQAKCLETGETVAIKKVLQDRRYKNRELQLMRVMDHPNVVCLKHCFFSTTSKDELFLNLVMEYVPESLYRVLKHYSSANQRMPLVYVKLYMYQIFRGLAYIHNVAGVCHRDLKPQNLLVDPLTHQVKICDFGSAKQLVKGEANISYICSRFYRAPELIFGATEYTTSIDIWSAGCVLAELLLGQPLFPGENAVDQLVEIIKVLGTPTREEIRCMNPHYTDFRFPQIKAHPWHKIFHKRMPPEAIDFASRLLQYSPSLRCTALEACAHPFFDELREPNARLPNGRPFPPLFNFKQEVAGSSPELVNKLIPDHIKRQLGLSFLNQSGT
  binding result: binds
